Results on seven molecules are retold here after publication doi:10.1101/559534v1 (biorxiv, 2019).

In data set [1] the target is T1, ATRR (ATR1R2) (Aspergillus nidulans, UniProt A0A1U8QWA2).
T1 sequence (A0A1U8QWA2 1-1270): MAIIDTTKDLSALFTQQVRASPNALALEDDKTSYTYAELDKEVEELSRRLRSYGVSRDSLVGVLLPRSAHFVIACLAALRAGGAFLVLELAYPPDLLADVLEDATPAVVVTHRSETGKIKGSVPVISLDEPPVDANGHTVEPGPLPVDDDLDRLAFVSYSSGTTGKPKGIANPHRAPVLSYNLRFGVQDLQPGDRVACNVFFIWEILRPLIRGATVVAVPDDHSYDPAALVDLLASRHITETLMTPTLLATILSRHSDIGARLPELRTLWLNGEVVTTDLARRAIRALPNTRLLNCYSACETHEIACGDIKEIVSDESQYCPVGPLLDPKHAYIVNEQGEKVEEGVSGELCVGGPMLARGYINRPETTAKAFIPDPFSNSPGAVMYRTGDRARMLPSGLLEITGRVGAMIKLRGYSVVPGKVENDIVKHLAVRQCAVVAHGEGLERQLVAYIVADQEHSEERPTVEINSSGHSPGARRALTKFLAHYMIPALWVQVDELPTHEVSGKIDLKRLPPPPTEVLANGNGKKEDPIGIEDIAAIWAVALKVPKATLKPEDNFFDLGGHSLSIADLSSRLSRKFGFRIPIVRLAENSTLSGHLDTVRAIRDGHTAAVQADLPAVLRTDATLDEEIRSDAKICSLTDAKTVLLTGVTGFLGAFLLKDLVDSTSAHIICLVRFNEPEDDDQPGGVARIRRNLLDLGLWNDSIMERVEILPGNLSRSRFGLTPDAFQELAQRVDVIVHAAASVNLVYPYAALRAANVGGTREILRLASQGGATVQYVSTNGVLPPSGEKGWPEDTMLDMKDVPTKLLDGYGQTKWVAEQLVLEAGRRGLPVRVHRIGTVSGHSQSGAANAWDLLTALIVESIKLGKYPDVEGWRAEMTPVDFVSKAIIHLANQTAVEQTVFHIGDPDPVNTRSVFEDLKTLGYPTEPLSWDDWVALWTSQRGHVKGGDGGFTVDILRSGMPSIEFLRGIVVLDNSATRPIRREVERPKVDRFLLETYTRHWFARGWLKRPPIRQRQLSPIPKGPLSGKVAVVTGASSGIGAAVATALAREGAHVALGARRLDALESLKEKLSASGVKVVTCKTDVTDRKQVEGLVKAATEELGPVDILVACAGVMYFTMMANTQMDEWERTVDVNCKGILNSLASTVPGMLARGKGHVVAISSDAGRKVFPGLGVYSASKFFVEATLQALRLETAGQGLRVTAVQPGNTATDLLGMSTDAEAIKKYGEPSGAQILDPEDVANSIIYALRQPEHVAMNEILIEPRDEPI
The data set can be described thus: glycine betaine reductase inhibition kinetics. Format: biochemical.

In data set [2] the target is T1, ATRR (ATR1R2). The data set can be described thus: carboxylic acid reductase steady-state kinetics. It counts as biochemical. Conditions: substrate inhibition.
Substrate in data set [3]: C[N+](C)(C)CC=O
Briefly: purified protein. The following applies: NADPH as co-substrate.

Substrate in data set [4]: CN(C)CC(=O)O
Briefly: purified protein. The following applies: ATP and NADPH as co-substrates; fit with substrate inhibition.

Substrate in data set [5]: C[N+](C)(C)CC(=O)[O-]
The data set can be described thus: purified protein. It counts as biochemical, Aspergillus nidulans. The following applies: holo-enzyme; ATP and NADPH as co-substrates.

Substrate in data set [6]: C[N+](C)(C)CC(=O)[O-]
The data set can be described thus: carboxylic acid reductase steady-state kinetics, NADPH oxidation. It counts as biochemical, Aspergillus nidulans. The following applies: ATP and NADPH as co-substrates; R2 inactivated.

Positions count from the first letter of the chain named. Names may count otherwise.

Take `C[N+](C)(C)CCO` [Choline]: the Ki in data set [1] came to 270 ± 30 µM.

On to `CN(C)C` [N(CH3)3H+Cl-], for which the Ki in data set [1] stood at 2600 ± 500 µM.

The molecule `CN(C)CC(=O)O` [N,N-Dimethylglycine] showed a Ki in data set [2] of 48000 ± 9000 µM.

B1: ATRR (ATR1R2) (Aspergillus nidulans FGSC A4; Y812F) (protein)
chain: T1 sequence (A0A1U8QWA2 1-1270) with Y812F
In the case of B1, in data set [3] (R1 inactivated), the Km – broadly, the substrate concentration at which the rate is half of its maximum – is 240 ± 30 µM and the kcat (commonly the maximal rate divided by the concentration of active sites) came out at 7.0 ± 0.2 s⁻¹.

B2: ATRR (ATR1R2) (Aspergillus nidulans FGSC A4) (protein)
chain: T1 sequence (A0A1U8QWA2 1-1270)
Consider B2, for which the Km in data set [4] was found to be 5800 ± 800 µM; in data set [3] (R2 site), 240 ± 30 µM; in data set [5], 2100 ± 200 µM. Besides, the kcat in data set [4] came to 0.023 ± 0.002 s⁻¹; in data set [3] (R2 site), 7.1 ± 0.3 s⁻¹; in data set [5], 0.94 ± 0.03 s⁻¹.

B3: ATRR (ATR1R2) (Aspergillus nidulans FGSC A4; Y1178F) (protein)
chain: T1 sequence (A0A1U8QWA2 1-1270) with Y1178F
B3: the Michaelis constant (Km) in data set [3] (R2 inactivated) was found to be 1500 ± 600 µM; in data set [6], 2200 ± 200 µM. The kcat in data set [3] (R2 inactivated) came to 0.30 ± 0.04 s⁻¹; in data set [6], 0.72 ± 0.02 s⁻¹.

B4: ATRR (ATR1R2) (Aspergillus nidulans FGSC A4; G1036A/Y1178F) (protein)
chain: T1 sequence (A0A1U8QWA2 1-1270) with G1036A, Y1178F
Regarding B4, in data set [3] (R2 inactivated), the Km amounted to 2600 ± 500 µM and the turnover number (kcat) turned out to be 0.018 ± 0.001 s⁻¹. Further, in data set [6], the Km was determined as 2200 ± 300 µM and the kcat stood at 0.66 ± 0.02 s⁻¹.
